According to US20200317776A1 (published 2020):
Substitutions are numbered along the chain they refer to. Blank lines part the entries; values can stand above or below the binder they belong to.

Assays:
[1] = target: T1, human TREM2 Fc fusion (entire TREM2 ECD; only one Fc arm fused to TREM2) (human, UniProt Q9NZC2 19-174); assay: BLI, IgG, avid
T1 construct: also called huTREM2-Fc; recombinant hTREM2
T1 sequence: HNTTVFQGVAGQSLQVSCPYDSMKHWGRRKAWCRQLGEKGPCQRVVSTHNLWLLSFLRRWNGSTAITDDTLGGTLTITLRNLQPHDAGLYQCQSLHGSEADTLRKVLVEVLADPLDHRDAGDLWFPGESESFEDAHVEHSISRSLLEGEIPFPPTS
Procedure: Briefly, IgGs were loaded on-line onto AHQ sensors, Sensors were equilibrated off-line in assay buffer for 30 minutes and then monitored on-line for 60 seconds for baseline establishment. For avid binding measurement, sensors with loaded IgGs were exposed to 100 nM antigen (human or cynomolgus monkey TREM2 Fe fusion using the entire TREM2 ECD; only one Fc arm was fused to TREM2) for 3 minutes, afterwards they were transferred to assay buffer for 3 minutes for off-rate measurement. Monovalent binding measurements were obtained by loading human TREM2 Fc fusion antigens to AHQ sensor and followed by exposure to 100 nM TREM2 antibody Fab. Kinetics data were fit using a 1:1 binding model in the data analysis software provided by ForteBio. Assay was run at room temperature (25° C.).

[2] = target: T1, human TREM2 Fc fusion (entire TREM2 …); assay: BLI, Fab, monovalent
[3] = target: T2, cynomolgus monkey TREM2 Fc fusion (entire TREM2 ECD; only one Fc arm fused to TREM2) (cynomolgus monkey, UniProt Q9NZC2 19-174 (human entry)); assay: BLI, Fab, monovalent
T2 construct: also called cyno TREM2-Fc
T2 chain: T1 sequence with A10E, W60R, L89F, F125V

[4] = target: T3, human TREM2 expressed on cells (human, UniProt Q9NZC2 19-230); assay: FACS, hTREM2 BW cells
T3 construct: BW5147.G.1.4 cells stably expressing human TREM2 together with Dap12, or endogenous TREM2 of primary human myeloid cells; also called huT2 BW; hTREM2 expressing cell line
T3 sequence: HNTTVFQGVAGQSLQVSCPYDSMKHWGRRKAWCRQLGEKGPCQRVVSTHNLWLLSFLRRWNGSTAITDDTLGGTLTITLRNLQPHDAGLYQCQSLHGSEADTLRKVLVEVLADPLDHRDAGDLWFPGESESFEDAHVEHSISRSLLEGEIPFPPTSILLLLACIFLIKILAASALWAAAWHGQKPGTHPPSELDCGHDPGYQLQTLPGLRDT
From the text: (§1) To examine cell binding of affinity matured anti-TREM2 antibodies, both primary human monocyte derived dendritic cells and recombinant, human TREM2 expressing cells were utilized. For the latter, BW5147.G.1.4 (ATCC® TIB48™) and HEK293T cells stably expressing human TREM2 together with Dap12 using viral infection were established. For primary human monocyte derived dendritic cells, human monocytes were isolated from whole blood using RosetteSep Human monocyte enrichment cocktail (Stemcell technologies) and Ficoll centrifugation per manufacturer protocols. After lysing red blood cells with ACK lysing buffer, monocytes were resuspended in complete media (RPMI, 10% FBS, Pen/Strep, L-glutamine, HEPES, non-essential amino acid, Sodium pyruvate) with 100 ng/ml human GM-CSF (hu-GMCSF) and, human IL-4 (hu-IL-4) to differentiate dendritic cells for 6 days.
(§2) Cells were harvested by trypsinization (Hek293T) or scraping (BW and dendritic cells), washed in PBS, counted and plated on 96-well U bottom plates at […] cells/well. The plates were spun at 1,400 rpm for 3 minutes and primary TREM2 or control antibodies were added in FACS buffer (PBS+2% FBS) and incubated on ice for one hour. Cells were subsequently centrifuged as before and washed thrice with FACS buffer. Cells were then incubated with anti-human PE conjugated secondary antibody (BD Biosciences) in FACS buffer for 30 minutes on ice. Cells were again washed thrice with FACS buffer and analyzed on a BD FACS Canto or an Intellicyt Flow Cytometer. Binding was measured as mean fluorescence intensity in the APC channel.

[5] = target: T4, human TREM2/DAP12 fusion protein (human, UniProt O43914 41-113, limits assumed); assay: cell-based or functional assay
[6] = target: T3, human TREM2 expressed on cells; assay: FACS, human DCs
From the text: as §1, §2

[7] = target: T3, human TREM2 expressed on cells; assay: cell-based or functional assay
[8] = target: T4, human TREM2/DAP12 fusion protein; assay: cell-based or functional assay; remark: listed apart in the source

B1: AL2p-21 (antibody, V domains shown)
VH: QVQLVQSGAEVKKPGSSVKVSCKASGYAFSSHWMNWVRQAPGQGLEWMGRIYPGDGDTNYAWKFQGRVTITADESTSTAYMELSSLRSEDTAVYYCARLLRNQPGESYAMDYWGQGTLVTVSS
VL: GVVMTQTPLSLSVTPGQPASISCRSSSSLVHSNGYTYLHWYLQKPGQSPQLLIYKVSNRKSGVPDRFSGSGSGTDFTLKISRVEAEDVGVYYCSQSTRVPYTFGQGTKLEIK
notes: Fab and IgG formats under one id
Kd [1]: 0.399 nM
Kd [2]: 4.15 nM
Kd [3]: 3.84 nM
Kd [4]: 1.5 nM
Luciferase activation plate bound 33 nM IgG, FOC [5]: 13.1 FOC
Luciferase activation soluble 10 nM IgG, FOC [5]: 1.83 FOC

B8: AL2p-24 (antibody, V domains shown)
VH: B1 VH with D55G, W62Q
VL: B1 VL with S27R, K60F
notes: as for B1
Kd [1]: 0.233 nM
Kd [2]: 2.1 nM
Kd [3]: 1.63 nM
Kd [4]: 1.7 nM
Luciferase activation plate bound 33 nM IgG, FOC [5]: 24.1 FOC
Luciferase activation soluble 10 nM IgG, FOC [5]: 2.12 FOC

B10: AL2p-22 (antibody, V domains shown)
VH: B1 VH with W62Y
VL: B1 VL with S27R, K60R
notes: as for B1
Kd [1]: 0.219 nM
Kd [2]: 1.58 nM
Kd [3]: 1.28 nM
Kd [4]: 1.5 nM
Luciferase activation plate bound 33 nM IgG, FOC [5]: 24.9 FOC
Luciferase activation soluble 10 nM IgG, FOC [5]: 1.75 FOC

B13: AL2p-25 (antibody, V domains shown)
VH: B1 VH with D55G, W62Q, Q65R
VL: B1 VL with S25T, S27Q, K60V
notes: as for B1
Kd [1]: 0.22 nM
Kd [2]: 2.34 nM
Kd [3]: 1.76 nM
Kd [4]: 1.7 nM
Luciferase activation plate bound 33 nM IgG, FOC [5]: 22.3 FOC
Luciferase activation soluble 10 nM IgG, FOC [5]: 2.35 FOC

B14: AL2p-27 (antibody, V domains shown)
VH: B1 VH with D55Q, W62Q
VL: B1 VL with S27R, K60V
notes: as for B1
Kd [1]: 0.274 nM
Kd [2]: 1.99 nM
Kd [3]: 1.82 nM
Kd [4]: 1.5 nM
Luciferase activation plate bound 33 nM IgG, FOC [5]: 24.4 FOC
Luciferase activation soluble 10 nM IgG, FOC [5]: 2.06 FOC

B16: AL2p-30 (antibody, V domains shown)
VH: B1 VH with H32Q
VL: B1 VL
notes: as for B1
Kd [1]: 0.377 nM
Kd [2]: 6.5 nM
Kd [3]: 5.66 nM
Kd [4]: 1.2 nM
Luciferase activation plate bound 33 nM IgG, FOC [5]: 15.8 FOC
Luciferase activation soluble 10 nM IgG, FOC [5]: 2.31 FOC

B17: AL2p-28 (antibody, V domains shown)
VH: B1 VH with D55V, W62Q
VL: B1 VL with S25T, S27Q, K60V
notes: as for B1
Kd [1]: 0.417 nM
Kd [2]: 7.6 nM
Kd [3]: 7.91 nM
Kd [4]: 2.2 nM
Luciferase activation plate bound 33 nM IgG, FOC [5]: 9.27 FOC
Luciferase activation soluble 10 nM IgG, FOC [5]: 2.14 FOC

Second part, led by results:

MFI [6]: 499 MFI
Kd [2]: 0.623 nM
Kd [3]: 0.37 nM
Kd [4]: 4.79 nM
BW Luc assay plate bound 7.3 nM IgG, FOC [8]: 4.47 FOC
BW Luc assay soluble 7.3 nM IgG, FOC [8]: 4.98 FOC
B2: AL2p-38 (antibody, V domains shown)
VH: B1 VH with D55G, W62Q, Q65R, E106A
VL: B1 VL with S27R, G34R, K60R
notes: as for B1
DC viability (AUC) [7]: 786000 AUC
Mac viability (AUC) [7]: 39000 AUC

Kd [1]: 0.889 nM
Kd [2]: 10.3 nM
Kd [3]: 0.884 nM
Kd [4]: 4.5 nM
Luciferase activation plate bound 33 nM IgG, FOC [5]: 3.21 FOC
Luciferase activation soluble 10 nM IgG, FOC [5]: 1.72 FOC
B3: AL2p-33 (antibody, V domains shown)
VH: B1 VH with Q1E, H32S, W62Q
VL: B1 VL with T5A, S25T, S27Q, K60V
notes: as for B1

MFI [6]: 1470 MFI
Kd [2]: 0.41 nM
Kd [3]: 0.271 nM
Kd [4]: 4.18 nM
BW Luc assay plate bound 7.3 nM IgG, FOC [8]: 7.17 FOC
BW Luc assay soluble 7.3 nM IgG, FOC [8]: 11.5 FOC
B4: AL2p-44 (antibody, IgG1, V domains shown)
VH: B1 VH with D55G, W62R, Q65R, E106A
VL: B1 VL with S25T, S27R, G34R, K60R
notes: as for B1
DC viability (AUC) [7]: 750000 AUC
Mac viability (AUC) [7]: 74700 AUC

MFI [6]: 590 MFI
Kd [2]: 0.631 nM
Kd [3]: 0.346 nM
Kd [4]: 1.53 nM
BW Luc assay plate bound 7.3 nM IgG, FOC [8]: 8.12 FOC
BW Luc assay soluble 7.3 nM IgG, FOC [8]: 3.81 FOC
B5: AL2p-39 (antibody, V domains shown)
VH: B1 VH with D55G, W62Q, Q65R, E106A
VL: B1 VL with S27R, G34Q, K60R
notes: as for B1
DC viability (AUC) [7]: 851000 AUC
Mac viability (AUC) [7]: 66900 AUC

Kd [1]: 1.12 nM
Kd [2]: 36 nM
Kd [3]: 34.8 nM
Kd [4]: 2.8 nM
Luciferase activation plate bound 33 nM IgG, FOC [5]: 4.9 FOC
Luciferase activation soluble 10 nM IgG, FOC [5]: 1.47 FOC
B6: AL2p-32 (antibody, V domains shown)
VH: B1 VH with H32E, W62Q
VL: B1 VL with S27Q, K60R
notes: as for B1

MFI [6]: 1040 MFI
Kd [2]: 0.493 nM
Kd [3]: 0.36 nM
Kd [4]: 5.01 nM
BW Luc assay plate bound 7.3 nM IgG, FOC [8]: 5.41 FOC
BW Luc assay soluble 7.3 nM IgG, FOC [8]: 8.84 FOC
B7: AL2p-43 (antibody, V domains shown)
VH: B1 VH with D55G, W62R, Q65R, E106A
VL: B1 VL with S27R, G34R, K60R
notes: as for B1

MFI [6]: 534 MFI
Kd [2]: 0.724 nM
Kd [3]: 0.352 nM
Kd [4]: 1.31 nM
BW Luc assay plate bound 7.3 nM IgG, FOC [8]: 7.61 FOC
BW Luc assay soluble 7.3 nM IgG, FOC [8]: 2.92 FOC
B9: AL2p-41 (antibody, IgG1, V domains shown)
VH: B1 VH with D55E, W62Q, Q65R, E106A
VL: B1 VL with S27R, G34Q, K60R
notes: as for B1
DC viability (AUC) [7]: 860000 AUC
Mac viability (AUC) [7]: 80700 AUC

MFI [6]: 547 MFI
Kd [2]: 0.602 nM
Kd [3]: 0.37 nM
Kd [4]: 2.27 nM
BW Luc assay plate bound 7.3 nM IgG, FOC [8]: 8.49 FOC
BW Luc assay soluble 7.3 nM IgG, FOC [8]: 9.92 FOC
B11: AL2p-40 (antibody, IgG1, V domains shown)
VH: B1 VH with D55G, W62Q, Q65R, E106A
VL: B1 VL with S25T, S27R, G34R, K60R
notes: as for B1
DC viability (AUC) [7]: 825000 AUC
Mac viability (AUC) [7]: 63200 AUC

MFI [6]: 662 MFI
Kd [2]: 0.829 nM
Kd [3]: 0.312 nM
Kd [4]: 1.91 nM
BW Luc assay plate bound 7.3 nM IgG, FOC [8]: 6.52 FOC
BW Luc assay soluble 7.3 nM IgG, FOC [8]: 5.95 FOC
B12: AL2p-42 (antibody, V domains shown)
VH: B1 VH with D55E, W62Q, Q65R, E106A
VL: B1 VL with S25T, S27R, G34R, K60R
notes: as for B1
DC viability (AUC) [7]: 781000 AUC
Mac viability (AUC) [7]: 57900 AUC

MFI [6]: 318 MFI
Kd [2]: 17.8 nM
Kd [3]: 20.9 nM
Kd [4]: 1.54 nM
BW Luc assay plate bound 7.3 nM IgG, FOC [8]: 2.29 FOC
BW Luc assay soluble 7.3 nM IgG, FOC [8]: 2.38 FOC
B15: AL2p-45 (antibody, V domains shown)
VH: B1 VH with H32D, D55E, W62R, Q103K
VL: B1 VL with G1D, S25T, S27Q, G34A, K60V
notes: as for B1
DC viability (AUC) [7]: 543000 AUC
Mac viability (AUC) [7]: 3680 AUC
